1 substance from article PMC6226536 can be followed below.

The target of the assay is SlOFP20 (full length, expressed in N. benthamiana leaf cells) (tomato).

For “SlTRM5 (full length, expressed in N. benthamiana leaf cells) (natural protein)”, the cells in which SlTRM5 stayed on the microtubules on co-expression with SlOFP20 in N. benthamiana leaf epidermal cells (% of the cells) amounted to 71.
